{"source": "paper PMC6715741", "about": "“Abundant neuroprotective chaperone Lipocalin-type prostaglandin D synthase (L-PGDS) disassembles the Amyloid-β fibrils” (Scientific Reports, 2019)", "binders": {"B1": {"name": "Human wild-type Lipocalin-type prostaglandin D synthase (L-PGDS) (natural protein, UniProt P41222 23-190, looked up)", "chain": "APEAQVSVQPNFQQDKFLGRWFSAGLASNSSWLREKKAALSMCKSVVAPATDGGLNLTSTFLRKNQCETRTMLLQPAGSLGSYSYRSPHWGSTYSVSVVETDYDQYALLYSQGSKGPGEDFRMATLYSRTQTPRAELKEKFTAFCKAQGFTEDTIVFLPQTDKCMTEQ", "modifications": "uniformly 15N labeled in the NMR titration with unlabeled Aβ40; unlabeled elsewhere"}}, "molecular_target": "Amyloid β (1–40) peptide, unlabeled, monomeric (UniProt P05067 672-711)", "sequence (P05067 672-711)": "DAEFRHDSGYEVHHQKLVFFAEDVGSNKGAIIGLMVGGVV", "assay": "cell-based or functional assay"}
{"binder": "B1", "values": [{"measurement": "IC50 of WT-L-PGDS for Aβ40 aggregation (ThT end-point fluorescence, 50 µM Aβ40, 37 °C)", "result": 980, "unit": "nM"}, {"measurement": "fold reduction of the primary nucleation rate constant of Aβ40 aggregation with L-PGDS (ThT curves fitted with Amylofit)", "result": 14, "unit": "fold"}, {"measurement": "fold reduction of the secondary nucleation rate constant of Aβ40 aggregation with L-PGDS (ThT curves fitted with Amylofit)", "result": 6, "unit": "fold"}]}
